According to patent publication US20040141968A1 (published 2004):

Key:
[1] = target: T1, HSV-1 glycoprotein B, soluble (HSV-1, UniProt P10211 31-730); assay: SPR; DC-SIGN CRD injected over immobilised HSV-1 gB
T1 construct: also called HSV-1 gB; gB HSV

HIV-1 gp120 (MN isolate) [2] = target: T2, HIV-1 gp120 (MN isolate) (HIV-1 (MN isolate), UniProt P05877 32-513, biotinylated when used as the labelled ligand on cells; unlabelled as competitor and on the SPR chip); assay: SPR (Biacore); DC-SIGN CRD injected over immobilised HIV-1 gp120; Langmuir fit, average
T2 construct: domain: gp120; Unlabelled gp120 came from the NIBSC repository; also called biotinylated HIV-1 gp120; HIV-1 Env glycoprotein 120

HIV-1 gp120 (MN isolate) [3] = target: T2, HIV-1 gp120 (MN isolate); assay: SPR (Biacore); DC-SIGN CRD injected over immobilised HIV-1 gp120; from koff/kon
HIV-1 gp120 (MN isolate) [4] = target: T2, HIV-1 gp120 (MN isolate); assay: flow cytometry; biotinylated protein on transfected HEK 293T cells, PE-streptavidin
[5] = target: T3, biotinylated Bovine Serum Albumine (bovine, UniProt P02769 25-607); assay: flow cytometry; biotinylated BSA on HEK 293T cells transfected with DC-SIGN, PE-streptavidin
T3 construct: also called BSA; biotinylated-BSA

[6] = target: T3, biotinylated Bovine Serum Albumine; assay: flow cytometry; biotinylated BSA on HEK 293T cells transfected with DC-SIGNR, PE-streptavidin

T3 sequence (P02769 25-607 limits assumed): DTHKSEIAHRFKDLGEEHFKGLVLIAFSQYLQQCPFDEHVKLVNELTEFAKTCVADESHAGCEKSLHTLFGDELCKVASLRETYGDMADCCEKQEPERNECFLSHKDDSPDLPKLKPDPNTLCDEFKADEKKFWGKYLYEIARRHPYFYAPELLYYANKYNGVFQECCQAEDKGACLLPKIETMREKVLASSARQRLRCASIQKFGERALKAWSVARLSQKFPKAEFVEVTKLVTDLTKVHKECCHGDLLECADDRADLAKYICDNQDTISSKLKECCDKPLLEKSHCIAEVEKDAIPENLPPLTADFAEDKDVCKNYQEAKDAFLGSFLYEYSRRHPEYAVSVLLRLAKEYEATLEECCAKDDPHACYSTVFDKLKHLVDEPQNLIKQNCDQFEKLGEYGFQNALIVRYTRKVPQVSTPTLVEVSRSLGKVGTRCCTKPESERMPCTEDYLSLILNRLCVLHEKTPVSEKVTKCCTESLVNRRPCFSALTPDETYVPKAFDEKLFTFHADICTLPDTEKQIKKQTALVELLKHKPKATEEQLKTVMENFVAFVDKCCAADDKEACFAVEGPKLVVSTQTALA

B1: recombinant soluble CRD of DC-SIGN (amino acids 254-404) (receptor)
chain: HPCPWEWTFFQGNCYFMSNSQRNWHDSITACKEVGAQLVVIKSAEEQNFLQLQSSRSNRFTWMGLSDLNQEGTWQWVDGSPLLPSFKQYWNRGEPNNVGEEDCAEFSGNGWNDDKCNLAKFWICKKSAASCSRDEEQFLSPAPATPNPPPA
notes: range 254-404; Purified on Ni-NTA and mannose-agarose; also called DC-SIGN CRD; recombinant soluble CRD domain of DC-SIGN
binding result [1]: no binding (tested: 0.13 to 1 µM) | koff (HIV-1 gp120 (MN isolate) [2]): 0.00101 s⁻¹ | kon (HIV-1 gp120 (MN isolate) [2]): 3330 M⁻¹ s⁻¹ | Kd (HIV-1 gp120 (MN isolate) [3]): 300 nM

B2: human DC-SIGN (DC-Specific ICAM-Grabbing Nonintegrin) expressed at the cell surface (receptor, UniProt Q9NNX6 1-404, looked up)
chain: MSDSKEPRLQQLGLLEEEQLRGLGFRQTRGYKSLAGCLGHGPLVLQLLSFTLLAGLLVQVSKVPSSISQEQSRQDAIYQNLTQLKAAVGELSEKSKLQEIYQELTQLKAAVGELPEKSKLQEIYQELTRLKAAVGELPEKSKLQEIYQELTWLKAAVGELPEKSKMQEIYQELTRLKAAVGELPEKSKQQEIYQELTRLKAAVGELPEKSKQQEIYQELTRLKAAVGELPEKSKQQEIYQELTQLKAAVERLCHPCPWEWTFFQGNCYFMSNSQRNWHDSITACKEVGAQLVVIKSAEEQNFLQLQSSRSNRFTWMGLSDLNQEGTWQWVDGSPLLPSFKQYWNRGEPNNVGEEDCAEFSGNGWNDDKCNLAKFWICKKSAASCSRDEEQFLSPAPATPNPPPA
notes: whole, on cells; On transduced THP-1, HeLa and HEK 293T cells, and naturally on monocyte-derived dendritic cells; For HEK 293T the cDNA was in pcDNA3 myc-His (version A); also called CD209; DC-SIGN^+ THP-1 cells
binding result (HIV-1 gp120 (MN isolate) [4]): binds | binding result [5]: no binding

B3: DC-SIGNR expressed on transiently transfected HEK 293T cells (receptor, human, UniProt Q9H2X3 1-399, looked up)
chain: MSDSKEPRVQQLGLLEEDPTTSGIRLFPRDFQFQQIHGHKSSTGCLGHGALVLQLLSFMLLAGVLVAILVQVSKVPSSLSQEQSEQDAIYQNLTQLKAAVGELSEKSKLQEIYQELTQLKAAVGELPEKSKLQEIYQELTRLKAAVGELPEKSKLQEIYQELTRLKAAVGELPEKSKLQEIYQELTRLKAAVGELPEKSKLQEIYQELTELKAAVGELPEKSKLQEIYQELTQLKAAVGELPDQSKQQQIYQELTDLKTAFERLCRHCPKDWTFFQGNCYFMSNSQRNWHDSVTACQEVRAQLVVIKTAEEQNFLQLQTSRSNRFSWMGLSDLNQEGTWQWVDGSPLSPSFQRYWNSGEPNNSGNEDCAEFSGSGWNDNRCDVDNYWICKKPAACFRDE
notes: whole, on cells
binding result (HIV-1 gp120 (MN isolate) [4]): binds | binding result [6]: no binding
